The text below walks through data of patent US20220396632A1 (VERSEAU THERAPEUTICS, published 2022).

No end group written: not given here. *: point of attachment. Biotin = O=C1N[C@H]2[C@H](CS[C@H]2CCCCC(=O)*)N1

The target of test [1] is T1, Biotin PSGL-1(42-62) D50A peptide (C-terminal Lys-biotin).
T1 peptide: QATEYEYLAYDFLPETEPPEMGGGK
The test can be described thus: ELISA, streptavidin-bound Ala peptide. For orientation: In an ELISA, binding on a coated surface is turned into a signal by an enzyme label.

The target of test [2] is T2, Biotin sY51 PSGL-1(42-62) peptide (human, sulfotyrosine at Y51; C-terminal Lys-biotin).
T2 construct: also called Y51(SO3) PSGL-1(42-62)
T2 peptide: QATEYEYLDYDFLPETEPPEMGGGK
The test can be described thus: ELISA, plate-bound peptide.

The target in test [3] is T3, Biotin PSGL-1(42-62) peptide, unmodified (human, C-terminal Lys-biotin).
T3 construct: Residues 42-62 followed by GGGK-biotin; also called WT; wild-type
T3 peptide: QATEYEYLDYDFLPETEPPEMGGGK
The test is described as follows: ELISA, streptavidin-immobilized biotin peptide [cont.]. How it is done: (§1) A typical ELISA experiment involved binding of a single concentration or serially diluted mAb in assay buffer (3% BSA in PBS containing 0.05% Tween®20, pH 7.4) onto BSA blocked high binding microtiter plate half-wells (Corning Cat. #3690), which contained PSGL-1 protein or streptavidin-immobilized biotin peptide. After incubation for 45 min. at 37° C., the plate was washed 3 times with wash buffer (PBS containing 0.05% Tween®20, pH 7.4), and an appropriate HRP-conjugated secondary antibody added (25 ul/well) (HRP goat anti-mouse or anti-human IgG). After 45 min. incubation at 37° C., the plate was washed and antibody bound to plate-immobilized target was determined at A450 nm using HRP substrate (3,3′5,5′-tetramethylbenzidine (TMB)). For each antibody, duplicate values were averaged and assay background subtracted.

Another test concerns the target T4, 260-280 (N-terminal acetyl; C-terminal Lys-biotin).
T4 construct: also called Biotin PSGL-1(260-280) peptide
T4 peptide: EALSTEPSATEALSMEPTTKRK
Described as above. The protocol: as §1

The target in a further test is T5, 165-190 (N-terminal acetyl; C-terminal Lys-biotin).
T5 construct: also called Biotin PSGL-1(165-190) peptide
T5 peptide: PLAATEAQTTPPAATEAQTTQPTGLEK
The test is described as above. The protocol: as §1

In the next test the target is T6, 145-170 (N-terminal acetyl; C-terminal Lys-biotin).
T6 peptide: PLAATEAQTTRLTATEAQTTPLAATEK
The test is described as above. How it is done: as §1

The target of another test is T7, 205-230 (N-terminal acetyl; C-terminal Lys-biotin).
T7 peptide: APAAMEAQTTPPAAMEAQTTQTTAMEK
The description is as above. How it is done:
as §1

The next test concerns the target T8, PSGL-1(305-320).
T8 construct: also called Biotin PSGL-1(305-320) peptide
T8 peptide: Ac-VNYPVGAPDHISVKQSK(Biotin)
The test is described as above. How it is done: as §1

Another test concerns the target T9, 185-210 (N-terminal acetyl; C-terminal Lys-biotin).
T9 construct: also called Biotin PSGL-1(185-210) peptide
T9 peptide: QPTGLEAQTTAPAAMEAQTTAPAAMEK
The test is described as above. The protocol: as §1

The target in another test is T10, PSGL-1(90-110) (N-terminal acetyl; C-terminal Lys-biotin).
T10 construct: also called Biotin PSGL-1(90-110) peptide
T10 peptide: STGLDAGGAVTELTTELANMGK
The test is described as above. How it is done:
as §1

The next test has as its target T11, 75-95 (N-terminal acetyl; C-terminal Lys-biotin).
T11 construct: also called Biotin PSGL-1(75-95) peptide
T11 peptide: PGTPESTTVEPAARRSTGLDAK
The test is described as above. The protocol:
as §1

In a further test the target is T12, PSGL-1(120-140) (N-terminal acetyl; C-terminal Lys-biotin).
T12 construct: also called Biotin PSGL-1(120-140) peptide
T12 peptide: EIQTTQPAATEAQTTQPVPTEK
The description is as above. The protocol:
as §1

A further test concerns the target T13, 275-295 (N-terminal acetyl; C-terminal Lys-biotin).
T13 peptide: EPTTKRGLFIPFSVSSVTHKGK
The description is as above. The protocol:
as §1

Test [4] has as its target T14, Biotin PSGL-1(56-70) peptide (human).
T14 peptide: Ac-ETEPPEMLRNSTDTTGK(Biotin)
The description is as above. How it is done:
as §1

The target of the next test is T15, 63-80 (N-terminal acetyl; C-terminal Lys-biotin).
T15 construct: also called Biotin PSGL-1(63-80) peptide
T15 peptide: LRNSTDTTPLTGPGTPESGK
The description is as above. The protocol:
as §1

The target in the next test is T16, 131-150 (N-terminal acetyl; C-terminal Lys-biotin).
T16 construct: also called Biotin PSGL-1(131-150) peptide
T16 peptide: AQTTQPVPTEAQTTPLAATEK
The test is described as above. The protocol: as §1

The target in a further test is T17, 245-265 (N-terminal acetyl; C-terminal Lys-biotin).
T17 peptide: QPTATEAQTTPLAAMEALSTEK
The description is as above. How it is done:
as §1

The target of the next test is T18, 225-250 (N-terminal acetyl; C-terminal Lys-biotin).
T18 peptide: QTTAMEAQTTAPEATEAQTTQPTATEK
The description is as above. How it is done: as §1

In another test the target is T19, 42-80 (C-terminal Lys-biotin).
T19 construct: also called Biotin PSGL-1(42-80) peptide
T19 peptide: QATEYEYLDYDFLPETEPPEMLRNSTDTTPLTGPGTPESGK
Described as above. How it is done:
as §1

The target in test [5] is T20, Biotin PSGL-1(42-62) E45A peptide (C-terminal Lys-biotin).
T20 peptide: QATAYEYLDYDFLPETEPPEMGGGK
The test can be described thus: ELISA, streptavidin-bound Ala peptide.

Test [6] addresses T21, Biotin PSGL-1(42-62) Y46A peptide (C-terminal Lys-biotin).
T21 peptide: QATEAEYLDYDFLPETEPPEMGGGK
The test can be described thus: ELISA, streptavidin-bound Ala peptide.

Test [7] concerns the target T21, Biotin PSGL-1(42-62) Y46A peptide. The test can be described thus: ELISA; against wild-type PSGL-1 42-62.
Test [8] has as its target T22, Biotin PSGL-1(42-62) E56A peptide (C-terminal Lys-biotin).
T22 peptide: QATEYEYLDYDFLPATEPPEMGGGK
The test can be described thus: ELISA, streptavidin-bound Ala peptide.

B1: 18F02 (antibody, V domains shown)
VH: QVQLQQPGAELVKPGASVKLSCKASGYTFTSYWMHWVKQRPGQGLEWIGMIHPNSGRTNYNEKFKSKATLTVDKSSSTAYMQLSSLTSEDSAVYYCARSDYWGQGTTLTVSS
VL: DIVMTQAAFSNPVTLGTSASISCRSSKSLLHSDGITYLYWFLQRPGQSPQLLIYRMSNLASGVPDRFSGSGSGTDFTLRISRVEAEDVGVYYCAQMLEFPRTFGGGTKLEIK
notes: From mouse immunisation; only variable domains given
As to B1, the EC50 in test [1] came out at 4.27 nM.

B2: 20I15 (antibody, V domains shown)
VH: EVKLVESGGGLVQPGGSLSLSCAASGFTFTDYYMSWVRQPPGKALEWLGFIRNKANGYTTEYSASVKGRFTISRDNSQSILYLQMNALRAEDSATYYCARTYLRRGYFDVWGTGTTVTVSS
VL: DIVLTQSPASLAVSLGQRATISCRASKSVSTSGYSYMHWFQQKPGQPPKLLIYLASNLESGVPARFSGSGSGTDFTLNIHPVEEEDAATYYCQHSRELPLTFGAGTKLELK
notes: From mouse immunisation; only variable domains given; also called 20115
On to B2, for which, in test [2], the “fold weaker binding than to the peptide with all 3 sulfated tyrosines” value is roughly 300 fold.

B3: 18K07 (antibody, V domains shown)
VH: QIQLVQSGPELKKPGETVKISCEASGYTFTTYGMNWVKQAPGKGLKWMGWINTYSGVPTYADDFQGRFAFSVETSATTAYLQINNLKNEDAATYFCARSDDTYYGFAYWGQGTLVTVSA
VL: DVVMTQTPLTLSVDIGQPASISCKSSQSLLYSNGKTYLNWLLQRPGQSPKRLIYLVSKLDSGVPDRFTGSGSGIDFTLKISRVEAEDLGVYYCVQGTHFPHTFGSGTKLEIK
notes: as for B1
For B3, the binding result (in test [3]; with 260-280; in the test with 165-190; with 145-170; with 205-230; in the test with PSGL-1(305-320)) was “no binding (tested: 10 nM)” each time. Moreover, the binding result with 185-210 is “no binding (tested: 10 nM)”; in the test with PSGL-1(90-110) it was “no binding (tested: 10 nM)”; with 75-95, “no binding (tested: 10 nM)”; in the test with PSGL-1(120-140), “no binding (tested: Log M -7 (100 nM))”; in the test with 275-295, “no binding (tested: 10 nM)”; in test [4] it was “no binding (tested: 10 nM)”. In addition, the binding result with 63-80, in the test with 131-150, with 245-265, in the test with 225-250 and in the test with 42-80 was “no binding (tested: 10 nM)” in each case.

B4: 16L15 (antibody, V domains shown)
VH: DVKLVESGGGLVKLGGSLKLSCAASGFTFSSYYMSWVRQTPEKRLEWVATISNGGGSTYYPDSVKDRFTISRDNAKNTLYLQMSSLNSEDTAVYYCAKPLYYSNPWFAYWGQGTLVTVSA
VL: DVLLTQTPLSLPVSLGDQASISCRSSQSIVHSNGNTYLEWYLQKPGQSPKLLIYKVSNRFSGVPDRFSGSGSGTDFTLKISRVEAEDLGVYYCFQGSHVPRTFGGGTKLEIK
notes: as for B1
With B4, the EC50 in [5] turned out to be 5.34 nM; in test [6], 4.44 nM. The molecule also yielded an EC50Ala/EC50 wt in [7] of 4.7 fold.

B5: 43B6 (antibody, V domains shown)
VH: EVQLQQSGPDLVKPGALVKISCKASGYSFTAYYIHWVKQSHGKSLEWIGRVNPNTGGTSYNPKFKGKAILNVDKSSSTAYMELRSLTSEDSAVYYCARSGSPYYRYDDWGQGTTLTVSS
VL: ENVLTQSPAIMSASPGEKVTMTCRASSTVNSTYLHWFQQKSGASPKLWIYGSSNLASGVPARFSGSGSGTSYSLTISSVEAEDAATYYCQQYSGYPLTFGAGTTLELK
notes: Control anti-PSGL-1 mAb, recombinant; only variable domains given; also called 43B3
On to B5, for which, in test [8], it took 4.25 nM to reach a half-maximal effect (EC50).

Broadly, the EC50 is the concentration giving half of the maximal effect. Low values mean a more potent agent, high ones a less potent agent.
